We go through one molecule from patent US20240360223A1 (DRAGONFLY THERAPEUTICS, published 2024).

Assay [1] has as its target human BAFF-R expressed on cells (human, UniProt Q96RJ3 1-184). Description: cell-based or functional assay.
The target in a further assay is T1, cynomolgus FcRn (cynomolgus, UniProt Q8SPV9 24-297; Q8SPW0 21-119).
T1 construct: also called Cyno FcRn
Put plainly: SPR, pH 6.0, steady state; pH 6.0; second replicate. For orientation: SPR reads the build-up and loss of mass on a sensor chip optically.

The target of assay [2] is T2, human CD16a V158 (human, UniProt P08637 17-208).
T2 construct: also called hCD16aV; hCD16a V158
Description: SPR, kinetic fit.

Assay [3] deals with T2, human CD16a V158. Put plainly: SPR, after 4 weeks at 40 °C.
The target in a further assay is T3, human CD16b (human, UniProt O75015 17-200, limits assumed).
T3 construct: also called FcγRIIIb
Description: SPR, steady state, average.

“And” between values parts separate entries of the source, which are not always exact repeats. Equal values may be shown once.

T2 sequence (P08637 17-208 F176V limits assumed): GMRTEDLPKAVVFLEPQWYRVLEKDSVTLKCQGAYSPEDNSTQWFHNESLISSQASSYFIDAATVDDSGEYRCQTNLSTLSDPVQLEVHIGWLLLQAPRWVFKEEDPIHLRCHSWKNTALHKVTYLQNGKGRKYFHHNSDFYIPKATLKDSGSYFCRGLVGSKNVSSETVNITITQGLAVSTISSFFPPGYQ
T3 sequence (O75015 17-200 limits assumed): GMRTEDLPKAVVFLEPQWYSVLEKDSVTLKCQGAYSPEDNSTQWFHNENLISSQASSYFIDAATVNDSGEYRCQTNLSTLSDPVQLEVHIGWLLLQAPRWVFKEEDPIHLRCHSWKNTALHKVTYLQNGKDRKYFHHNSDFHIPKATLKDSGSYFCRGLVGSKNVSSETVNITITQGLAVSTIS
T1 sequence (Q8SPV9 24-297 limits assumed, chain 1 of 2): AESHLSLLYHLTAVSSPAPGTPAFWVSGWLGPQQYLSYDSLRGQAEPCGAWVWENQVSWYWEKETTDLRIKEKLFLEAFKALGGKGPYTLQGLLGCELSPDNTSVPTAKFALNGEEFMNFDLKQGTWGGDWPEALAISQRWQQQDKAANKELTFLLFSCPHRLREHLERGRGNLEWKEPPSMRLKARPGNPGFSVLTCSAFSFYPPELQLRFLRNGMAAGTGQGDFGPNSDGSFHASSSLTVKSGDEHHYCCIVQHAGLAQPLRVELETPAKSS
T1 sequence (Q8SPW0 21-119 limits assumed, chain 2 of 2): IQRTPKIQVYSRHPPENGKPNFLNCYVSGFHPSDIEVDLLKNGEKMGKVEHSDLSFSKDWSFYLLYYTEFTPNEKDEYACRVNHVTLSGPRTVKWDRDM

B1: AB1424/AB1612 F3′ TriNKET (bispecific antibody, human IgG1, kappa)
chain: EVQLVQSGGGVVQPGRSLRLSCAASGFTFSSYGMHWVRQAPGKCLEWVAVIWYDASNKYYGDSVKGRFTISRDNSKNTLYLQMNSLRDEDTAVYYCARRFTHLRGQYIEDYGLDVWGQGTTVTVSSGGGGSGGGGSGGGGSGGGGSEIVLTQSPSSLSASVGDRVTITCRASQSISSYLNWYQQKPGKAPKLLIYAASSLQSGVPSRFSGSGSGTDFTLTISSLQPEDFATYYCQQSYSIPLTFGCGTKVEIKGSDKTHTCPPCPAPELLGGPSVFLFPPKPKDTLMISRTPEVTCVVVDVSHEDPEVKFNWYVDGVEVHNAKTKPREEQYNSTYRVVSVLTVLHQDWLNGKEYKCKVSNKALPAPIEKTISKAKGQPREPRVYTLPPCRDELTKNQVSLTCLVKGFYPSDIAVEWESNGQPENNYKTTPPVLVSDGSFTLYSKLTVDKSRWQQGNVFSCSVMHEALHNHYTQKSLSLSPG
heavy: EVQLVESGGGLVKPGGSLRLSCAASGFTFSSYSMNWVRQAPGKGLEWVSSISSSSSYIYYADSVKGRFTISRDNAKNSLYLQMNSLRAEDTAVYYCARGAPIGAAAGWFDPWGQGTLVTVSSASTKGPSVFPLAPSSKSTSGGTAALGCLVKDYFPEPVTVSWNSGALTSGVHTFPAVLQSSGLYSLSSVVTVPSSSLGTQTYICNVNHKPSNTKVDKKVEPKSCDKTHTCPPCPAPELLGGPSVFLFPPKPKDTLMISRTPEVTCVVVDVSHEDPEVKFNWYVDGVEVHNAKTKPREEQYNSTYRVVSVLTVLHQDWLNGKEYKCKVSNKALPAPIEKTISKAKGQPREPQVCTLPPSRDELTENQVSLTCLVKGFYPSDIAVEWESNGQPENNYKTTPPVLDSDGSFFLYSWLTVDKSRWQQGNVFSCSVMHEALHNHYTQKSLSLSPG
light: DIQMTQSPSSVSASVGDRVTITCRASQGISSWLAWYQQKPGKAPKLLIYAASSLQSGVPSRFSGSGSGTDFTLTISSLQPEDFATYYCQQGVSFPRTFGGGTKVEIKRTVAAPSVFIFPPSDEQLKSGTASVVCLLNNFYPREAKVQWKVDNALQSGNSQESVTEQDSKDSTYSLSSTLTLSKADYEKHKVYACEVTHQGLSSPVTKSFNRGEC
notes: Chain S: anti-BAFF-R scFv-CH2-CH3; chain H: anti-NKG2D VH-CH1-CH2-CH3; chain L: anti-NKG2D VL-CL; also called AB1612-002
B1: in assay [1], the “lysis of BJAB target cells by rested primary human NK cells, EC50” value was determined as 0.06 nM. Also, the “specific lysis of BAFF-R+ target cells by KHYG-1-CD16V effector cells, EC50” value in assay [1] was 0.05 nM. Further, the dissociation constant (Kd) (commonly the free concentration of one partner at which half of the binding sites on the other are occupied at equilibrium, for simple one-to-one binding) with cynomolgus FcRn was 1000 nM; in the assay with human CD16a V158 [2] it was 131 nM (2×) and 134 nM and 122 nM; with human CD16a V158 [3] it was 145 nM; in the assay with human CD16b, 6900 nM. For the same molecule, in the assay with human CD16a V158 [3], the koff (usually a measure of how fast the partners let go of each other) amounted to 0.016 s⁻¹. Moreover, the on-rate (kon) (usually the second-order rate constant of association) with human CD16a V158 [3] came out at 120000 M⁻¹ s⁻¹.
